Measured values as given in article PMC5783997.

Experiments:
[1] = biological target: PucD LH2 α-apoprotein (α-polypeptide encoded by the pucBAd gene pair) (Rhodopseudomonas palustris (endogenous in the ΔpucBAabce mutant; genome sequence of strain CGA009)); experiment: crystal structure; PucD LH2 in 20 mM Tris-Cl pH 8.0, 0.15% DM, 3.0% HPT, PEG 600, 50 mM CaCl2, 16 °C; data to 4.71 Å; molecular replacement with the nonameric Rps. acidophila 10050 LH2, jelly-body refinement
[2] = biological target: PucD LH2 β-apoprotein (β-polypeptide encoded by the pucBAd gene pair) (Rhodopseudomonas palustris (endogenous in the ΔpucBAabce mutant; genome sequence of strain CGA009)); experiment: as above

stoichiometry N [1] | stoichiometry N [2] | Substance
9 | – | PucD LH2 α-apoprotein (α-polypeptide encoded by the pucBAd gene pair) (natural protein)
– | 9 | PucD LH2 β-apoprotein (β-polypeptide encoded by the pucBAd gene pair) (natural protein)
